We go through three substances from paper doi:10.1101/2023.08.11.552962.

The target of assay [1] is MacMCM, minichromosome maintenance protein from Mancarchaeum acidiphilum (Mancarchaeum acidiphilum). The assay can be described thus: SEC.
For assay [2], the target named is MacMCM^E391Q, Walker B mutant of MacMCM (Mancarchaeum acidiphilum). The assay can be described thus: SEC.
The target of assay [3] is MacMCM^ΔWHD.E391Q, MacMCM without the winged helix domain and with the Walker B mutation E391Q (Mancarchaeum acidiphilum). Description: crystal structure.
The target is the same in assay [4]. The assay can be described thus: SEC.

In the case of “MacMCM, minichromosome maintenance protein from Mancarchaeum acidiphilum (enzyme)”, the stoichiometry N – broadly, the number of molecules, sites or subunits per partner or assembly – in assay [1] stood at 6.
On to “MacMCM^E391Q, Walker B mutant of MacMCM (enzyme)”, for which the stoichiometry N in assay [2] is 6.
Regarding “MacMCM^ΔWHD.E391Q, MacMCM without the winged helix domain and with the Walker B mutation E391Q (domain or fragment)”, the stoichiometry N in assay [3] and in assay [4] was 6 each time.
